Test results from publication PMC4511216 (Genes & Development, 2015).
Read-outs that look alike come from different tables or passages of the source. Square brackets hold non-standard residues; d marks the D form. Ends that are not written are not given here. pT = C[C@@H](OP(=O)(O)O)[C@H](N)C(=O)O

T1: human Lats1C ΔHM (residue 602–1060) (human, UniProt O95835 602-1060)
T1 sequence: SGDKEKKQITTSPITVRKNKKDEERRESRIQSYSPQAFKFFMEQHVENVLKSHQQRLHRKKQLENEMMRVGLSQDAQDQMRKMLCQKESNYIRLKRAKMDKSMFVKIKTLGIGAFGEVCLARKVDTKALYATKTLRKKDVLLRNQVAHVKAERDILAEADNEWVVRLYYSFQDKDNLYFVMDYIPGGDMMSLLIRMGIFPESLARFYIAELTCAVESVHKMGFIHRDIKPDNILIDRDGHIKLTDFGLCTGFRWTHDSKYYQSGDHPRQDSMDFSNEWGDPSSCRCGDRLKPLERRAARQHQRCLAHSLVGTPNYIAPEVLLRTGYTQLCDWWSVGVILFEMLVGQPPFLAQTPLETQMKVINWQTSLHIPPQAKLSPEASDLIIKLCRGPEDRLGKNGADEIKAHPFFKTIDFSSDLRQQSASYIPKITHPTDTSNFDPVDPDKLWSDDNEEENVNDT

T2: human Mst2 wild type, autophosphorylated (pMst2) (human, UniProt Q13188 9-491)
T2 sequence: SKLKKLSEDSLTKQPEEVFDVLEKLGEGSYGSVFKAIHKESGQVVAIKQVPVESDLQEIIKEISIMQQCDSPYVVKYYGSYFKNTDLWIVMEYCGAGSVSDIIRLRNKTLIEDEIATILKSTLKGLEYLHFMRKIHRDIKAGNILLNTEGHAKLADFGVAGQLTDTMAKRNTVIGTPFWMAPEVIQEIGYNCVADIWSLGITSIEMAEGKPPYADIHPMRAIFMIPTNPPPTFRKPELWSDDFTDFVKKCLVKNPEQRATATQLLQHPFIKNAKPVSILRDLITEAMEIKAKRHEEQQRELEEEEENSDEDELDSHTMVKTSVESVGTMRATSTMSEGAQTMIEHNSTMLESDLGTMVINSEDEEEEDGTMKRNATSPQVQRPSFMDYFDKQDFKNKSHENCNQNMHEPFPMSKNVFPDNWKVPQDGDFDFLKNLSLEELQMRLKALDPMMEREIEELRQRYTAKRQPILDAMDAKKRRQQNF

T3: human pMob1, full length, untagged (phosphorylated by Mst2) (human, UniProt Q9H8S9 1-216, phosphothreonine at 12 and 35)
T3 sequence: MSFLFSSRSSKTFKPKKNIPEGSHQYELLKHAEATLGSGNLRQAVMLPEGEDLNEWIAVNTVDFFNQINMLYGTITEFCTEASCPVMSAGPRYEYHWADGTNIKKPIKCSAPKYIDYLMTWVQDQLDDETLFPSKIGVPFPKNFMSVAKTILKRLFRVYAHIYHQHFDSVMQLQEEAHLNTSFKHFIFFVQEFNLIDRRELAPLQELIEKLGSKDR

B1: human Mob1, full length, unphosphorylated, untagged (natural protein)
chain: T3 sequence
B2: GST-Mst2 371–427, phosphorylated with Mst2 kinase domain (domain or fragment, human, UniProt Q13188 371-427, looked up)
chain: DEEEEDG[pT]MKRNATSPQVQRPSFMDYFDKQDFKNKSHENCNQNMHEPFPMSKNVFPD
modifications: also: GST fusion
B3: human Mst2 ΔL/MBM (contains only the MBM but lacks all other linker residues) (enzyme)
chain: SKLKKLSEDSLTKQPEEVFDVLEKLGEGSYGSVFKAIHKESGQVVAIKQVPVESDLQEIIKEISIMQQCDSPYVVKYYGSYFKNTDLWIVMEYCGAGSVSDIIRLRNKTLIEDEIATILKSTLKGLEYLHFMRKIHRDIKAGNILLNTEGHAKLADFGVAGQLTDTMAKRNTVIGTPFWMAPEVIQEIGYNCVADIWSLGITSIEMAEGKPPYADIHPMRAIFMIPTNPPPTFRKPELWSDDFTDFVKKCLVKNPEQRATATQLLQHPFIKNAKPVSILRDLITEAMEIKAKRHEEQQRELEEEEDEEEEDGTMKRNATSPQVQRPSFMDYFDKQNWKVPQDGDFDFLKNLSLEELQMRLKALDPMMEREIEELRQRYTAKRQPILDAMDAKKRRQQNF
B4: human Lats1 602–704 (Lats1 MBD) (domain or fragment)
chain: SGDKEKKQITTSPITVRKNKKDEERRESRIQSYSPQAFKFFMEQHVENVLKSHQQRLHRKKQLENEMMRVGLSQDAQDQMRKMLCQKESNYIRLKRAKMDKSM

Experiments:
[1] = biological target: PPXY-containing peptide of Lats1
[2] = biological target: B1; experiment: ITC
[3] = biological target: T1, human Lats1C ΔHM (residue 602–1060); experiment: SEC
[4] = biological target: T2, human Mst2 wild type, …; experiment: NMR titration
[5] = biological target: B1; experiment: pull-down
[6] = biological target: human Mob1 H164A (human, UniProt Q9H8S9 1-216, H164A); experiment: pull-down
[7] = biological target: human Mob1 F167A (human, UniProt Q9H8S9 1-216, F167A); experiment: pull-down
[8] = biological target: human Mob1 L207K (human, UniProt Q9H8S9 1-216, L207K); experiment: pull-down
[9] = biological target: B1; experiment: ITC; remark: listed apart in the source
[10] = biological target: T3, human pMob1, full length, untagged …; experiment: crystal structure

human Sav WW domains (domain or fragment)
Kd [1]: 156000 nM

DEEEEDG[pT]MKRNATSPQVQRPSFMDYFDKQ [synthetic phospho-T378 Mst2 MBM peptide]
Kd [2]: 119 nM

B1
binding result [3]: binds
binding result [4]: binds

DEEEEDG[pT]MKRNATSPQVQRPSFMDYFDKQD (domain or fragment, human, UniProt Q13188 371-401, looked up, not fully specified (N-terminus)) [GST-pMst2 MBM (residues 371–401), phosphorylated]
binding result [5]: binds

B2
binding result [6]: binds
binding result [7]: binds
binding result [8]: binds

B3
Kd [9]: 230 nM

DGTMKRNATSPQVQRPSFMDYFDKQ (domain or fragment, human, UniProt Q13188 376-400, looked up, not fully specified (N-terminus); also: phosphorylated, sites not given here) [GST-Mst2 linker fragment 376–400, phosphorylated with Mst2 kinase domain]
binding result [5]: binds

B4
binding result [10]: binds
